Patent US20090111742A1, “Use of fgf-21 and thiazolidinedione for treating type 2 diabetes” (priority 2004, published 2009)

Experiments:
male db/db mice [1] = assay: Db/db mouse model, plasma triglycerides; type: in vivo
From the text: (§1) The genetically diabetic C57BL/KsJ (db/db) mouse provides an animal model of type 2 diabetes, characterized by obesity, hyperglycemia and insulin resistance with hyperinsulinemia. (Sharma et al., Am J Physiol Renal Physiol. 284(6):F1138-b 44, (2003)).
(§2) In the present study, male db/db mice, 9 weeks of age are used. The animals are randomized by body weight and blood glucose levels into groups of six mice per group. Group 1: vehicle 1: CMC/SLS/Povidone, p.o. […] The animals are dose for 14 days.
Plasma triglycerides are measured on days 7 and 14, 1 hour post dosing.

male db/db mice [2] = assay: Db/db mouse model, blood glucose levels; type: in vivo; conditions: 1 hour post dose
From the text: as §1, §2
Blood glucose is measured daily, 1 hour post dosing.

male ob/ob mice = assay: Ob/ob mouse model, blood glucose levels; type: in vivo; conditions: 1 hour post dose
Experimental: The Ob/ob mouse model is an animal model for hyperglycemia, insulin resistance and obesity. Male ob/ob mice are used to monitor plasma glucose levels and triglyceride levels after treatment with FGF-21, rosiglitazone, and FGF-21 in combination with rosiglitazone. The test groups of male ob/ob, mice (7 weeks old) are: FGF-21, 5 μg/day; rosiglitazone, 30 mg/kg/day; FGF-21, 3 ug/day, +rosiglitazone, 10 mg/kg/day; FGF-21, 5 ug/day, +rosiglitazone, 30 mg/kg/day; FGF-21, 5 ug/day, +rosiglitazone 10 mg/kg/day; s.c. vehicle control (0.9% NaCl, 0.1 ml/mouse); and, p.o. vehicle control (CMC/SLS/Povidone, 0.2 ml/mouse). FGF-21 is administered s.c. in 0.1 ml, and rosiglitazone is administered p.o. in 0.2 ml.
The animals are dosed daily for 14 days. Blood glucose levels are measured daily, 1 hour post dosing, using a standard protocol.

[3] = tested on: differentiated 3T3-L1 cells; assay: Glucose uptake in mouse 3T3-L1 adipocytes (2-deoxy-D-[14C]glucose accumulation); type: cell-based; conditions: 72 hr. treatment
Experimental: 3T3-Li cells are obtained from the American Type Culture Collection (ATCC, Rockville, Md.). Cells are cultured in growth medium (GM) containing 10% calf serum in Dulbecco's modified Eagle's medium. For standard adipocyte differentiation, two days after cells reach confluency (referred as day 0), the cells are exposed to differentiation medium (DM) containing 10% fetal bovine serum, 5 μg/ml of insulin, 1 μM dexamethasone, and […] isobutylmethylxanthine, for 48 h and then are exposed to medium containing 10% fetal bovine serum, 5 μg/ml insulin for an additional 48 h. Cells are then maintained in post differentiation medium containing 10% fetal bovine serum.
Glucose Transport Assay—FGF-21 is added to the differentiated 3T3-L1 cells in 96 well plates at 0, 0.016, 0.08, 0.4, 2, 10, or 50.0 nM, and rosiglitazone is added to a final concentration of 1 μM, Table 1. For comparison, rosiglitazone alone is added at the concentrations indicated in Table 2 or in combination with FGF-21 at 1 μg/ml. The plates are incubated at 37° C. for 72 hours.
Hexose uptake, as assayed by the accumulation of 2-deoxy-D-[^14C]glucose, is measured as follows: 24 hours prior to the assay, the wells are rinsed twice with PBS and DMEM (high glucose, 1% antibiotic/antimycotic solution, 2 mM glutamine), 0.1% BSA plus FGF-21 is added. The plates are incubated at 37° C. for 72 hours. The cells are then washed twice with KRP buffer (136 mM NaCl, 4.7 mM KCl, 10 mM NaPO4, 0.9 mM CaCl2, 0.9 MM MgSO4, 0.1% BSA, pH 7.4), and then KRP buffer containing 1% BSA, 2-deoxy-D-glucose, 100 μM, 0.1 μCi/well 2-deoxy-D-[^14C]glucose is added and the plates are incubated at 37° C. for one hour. Cytochalasin B is added to stop further glucose uptake. Uptake is measured on a Microbeta plate reader.

With `CN(CCOc1ccc(CC2SC(=O)NC2=O)cc1)c1ccccn1` (stereo not drawn) [Rosi., rosiglitazone, reference compound] the “Plasma Triglycerides” value (male db/db mice [1]; Rosi. 10 mg/kg/day, Day 7, 1 hour post dose) was 135 mg/dL, the “Plasma Triglycerides” value (male db/db mice [1]; Rosi. 10 mg/kg/day, Day 14, 1 hour post dose) was 85 mg/dL and the “Blood Glucose Levels in db/db mice” value (male db/db mice [2]; Rosi. 10 mg/kg/day p.o., day 0) was 265 mg/dL. The “Blood Glucose Levels in db/db mice” value (male db/db mice [2]; Rosi. 10 mg/kg/day p.o., day 2) was 370 mg/dL, the “Blood Glucose Levels in db/db mice” value (male db/db mice [2]; Rosi. 10 mg/kg/day p.o., day 4) was 350 mg/dL and the “Blood Glucose Levels in db/db mice” value (male db/db mice [2]; Rosi. 10 mg/kg/day p.o., day 6) was 340 mg/dL. For the same molecule, the “Blood Glucose Levels in db/db mice” value (male db/db mice [2]; Rosi. 10 mg/kg/day p.o., day 8) was 265 mg/dL, the “Blood Glucose Levels in db/db mice” value (male db/db mice [2]; Rosi. 10 mg/kg/day p.o., day 10) was 315 mg/dL and the “Blood Glucose Levels in db/db mice” value (male db/db mice [2]; Rosi. 10 mg/kg/day p.o., day 12) was 360 mg/dL. For the same molecule, the “Blood Glucose Levels in db/db mice” value (male db/db mice [2]; Rosi. 10 mg/kg/day p.o., day 14) was 350 mg/dL, the “Blood Glucose Levels in ob/ob mice” value (male ob/ob mice; Rosi. 30 mg/kg/day p.o., day 0) was 225 mg/dL and the “Blood Glucose Levels in ob/ob mice” value (male ob/ob mice; Rosi. 30 mg/kg/day p.o., day 2) was 125 mg/dL. For the same molecule, the “Blood Glucose Levels in ob/ob mice” value (male ob/ob mice; Rosi. 30 mg/kg/day p.o., day 4) was 150 mg/dL, the “Blood Glucose Levels in ob/ob mice” value (male ob/ob mice; Rosi. 30 mg/kg/day p.o., day 6) was 135 mg/dL and the “Blood Glucose Levels in ob/ob mice” value (male ob/ob mice; Rosi. 30 mg/kg/day p.o., day 8) was 115 mg/dL. For the same molecule, the “Blood Glucose Levels in ob/ob mice” value (male ob/ob mice; Rosi. 30 mg/kg/day p.o., day 10) was 125 mg/dL, the “Blood Glucose Levels in ob/ob mice” value (male ob/ob mice; Rosi. 30 mg/kg/day p.o., day 12) was 120 mg/dL and the “Blood Glucose Levels in ob/ob mice” value (male ob/ob mice; Rosi. 30 mg/kg/day p.o., day 14) was 115 mg/dL.

B1: FGF-21: mature human 181 amino acid FGF-21 polypeptide (SEQ ID NO:1), recombinantly expressed (protein)
chain: HPIPDSSPLLQFGGQVRQRYLYTDDAQQTEAHLEIREDGTVGGAADQSPESLLQLKALKPGVIQILGVKTSRFLCQRPDGALYGSLHFDPEACSFRELLLEDGYNVYQSEAHGLPLHLPGNKSPHRDPAPRGPARFLPLPGLPPALPEPPGILAPQPPDVGSSDPLSMVGPSQGRSPSYAS
modifications: homo sapiens
For B1, the “Plasma Triglycerides” value (male db/db mice [1]; FGF-21 3 ug/day, Day 7, 1 hour post dose) was 165 mg/dL, the “Plasma Triglycerides” value (male db/db mice [1]; FGF-21 3 ug/day, Day 14, 1 hour post dose) was 120 mg/dL and the “Blood Glucose Levels in db/db mice” value (male db/db mice [2]; FGF-21 3 μg/day s.c., day 0) was 265 mg/dL. For the same molecule, the “Blood Glucose Levels in db/db mice” value (male db/db mice [2]; FGF-21 3 μg/day s.c., day 2) was 270 mg/dL, the “Blood Glucose Levels in db/db mice” value (male db/db mice [2]; FGF-21 3 μg/day s.c., day 4) was 280 mg/dL and the “Blood Glucose Levels in db/db mice” value (male db/db mice [2]; FGF-21 3 μg/day s.c., day 6) was 300 mg/dL. For the same molecule, the “Blood Glucose Levels in db/db mice” value (male db/db mice [2]; FGF-21 3 μg/day s.c., day 8) was 290 mg/dL, the “Blood Glucose Levels in db/db mice” value (male db/db mice [2]; FGF-21 3 μg/day s.c., day 10) was 325 mg/dL and the “Blood Glucose Levels in db/db mice” value (male db/db mice [2]; FGF-21 3 μg/day s.c., day 12) was 345 mg/dL. For the same molecule, the “Blood Glucose Levels in db/db mice” value (male db/db mice [2]; FGF-21 3 μg/day s.c., day 14) was 345 mg/dL, the “Blood Glucose Levels in ob/ob mice” value (male ob/ob mice; FGF-21 5 μg/day s.c., day 0) was 225 mg/dL and the “Blood Glucose Levels in ob/ob mice” value (male ob/ob mice; FGF-21 5 μg/day s.c., day 2) was 175 mg/dL. The “Blood Glucose Levels in ob/ob mice” value (male ob/ob mice; FGF-21 5 μg/day s.c., day 4) was 150 mg/dL, the “Blood Glucose Levels in ob/ob mice” value (male ob/ob mice; FGF-21 5 μg/day s.c., day 6) was 140 mg/dL and the “Blood Glucose Levels in ob/ob mice” value (male ob/ob mice; FGF-21 5 μg/day s.c., day 8) was 140 mg/dL. For the same molecule, the “Blood Glucose Levels in ob/ob mice” value (male ob/ob mice; FGF-21 5 μg/day s.c., day 10) was 160 mg/dL, the “Blood Glucose Levels in ob/ob mice” value (male ob/ob mice; FGF-21 5 μg/day s.c., day 12) was 180 mg/dL and the “Blood Glucose Levels in ob/ob mice” value (male ob/ob mice; FGF-21 5 μg/day s.c., day 14) was 225 mg/dL. The “14C-Deoxyglucose (CPM)” value ([3]; FGF-21 alone 0.4 nM) was 1300 CPM, the “14C-Deoxyglucose (CPM)” value ([3]; FGF-21 alone 2.0 nM) was 2500 CPM and the “14C-Deoxyglucose (CPM)” value ([3]; FGF-21 alone 10.0 nM) was 3100 CPM. The “14C-Deoxyglucose (CPM)” value ([3]; FGF-21 alone 50.0 nM) was 3500 CPM, the “14C-Deoxyglucose (CPM)” value ([3]; FGF-21 alone .016 nM) was 900 CPM and the “14C-Deoxyglucose (CPM)” value ([3]; FGF-21 alone .08 nM) was 1000 CPM.
